What all share (assay): BLI (Octet)
The target of experiment [1] is T1, LRP6E1E2 (UniProt O75581 20-630).
T1 chain: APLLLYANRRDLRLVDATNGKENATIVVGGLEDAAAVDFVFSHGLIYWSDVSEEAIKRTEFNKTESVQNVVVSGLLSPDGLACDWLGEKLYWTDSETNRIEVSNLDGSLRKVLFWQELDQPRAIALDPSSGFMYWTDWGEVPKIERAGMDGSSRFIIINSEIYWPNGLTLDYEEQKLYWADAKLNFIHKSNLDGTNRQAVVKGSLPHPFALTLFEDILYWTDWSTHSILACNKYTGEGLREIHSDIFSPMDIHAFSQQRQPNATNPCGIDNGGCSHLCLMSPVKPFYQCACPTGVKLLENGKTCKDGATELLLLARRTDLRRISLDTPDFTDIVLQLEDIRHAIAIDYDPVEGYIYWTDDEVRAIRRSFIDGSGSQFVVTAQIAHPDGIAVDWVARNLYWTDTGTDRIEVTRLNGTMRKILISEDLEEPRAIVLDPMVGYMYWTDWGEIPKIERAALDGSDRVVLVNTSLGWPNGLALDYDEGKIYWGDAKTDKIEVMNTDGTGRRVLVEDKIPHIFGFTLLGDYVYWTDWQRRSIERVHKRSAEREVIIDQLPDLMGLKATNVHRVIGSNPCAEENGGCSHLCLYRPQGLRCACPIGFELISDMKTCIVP

Experiment [2] has as its target T1, LRP6E1E2.
The target of experiment [3] is Frizzled 1 (Fzd1) (UniProt Q9UP38 111-230).

Kd data for 7 molecules are collected here from patent US20210292422A1 (published 2021).

A word on the Kd: it is the free concentration of one partner at which half of the binding sites on the other are occupied at equilibrium, for simple one-to-one binding. High values mean weaker binding, low ones tighter binding.

Where two headings read alike, the source gives them in different places.

B1: αGFP:5:L1:Fc (bispecific antibody)
chain: QVQLVESGGGLVQPGGSLRLSCAASGFTFSRYGMHWVRQAPGKGLEWVSGISSIGSNTYYADSVKGRFTISRDNSKNTLYLQMNSLRAEDTAVYYCARWYKTYIDVWGQGTLVTVSSGGGGSGGGGSGGGGSDIELTQPPSVSVAPGQTARISCSGDNLGKKYVYWYQQKPGQAPVLVIYGDDERPSGIPERFSGSNSGNTATLTISGTQAEDEADYYCASYDSSHILIVFGGGTKLTVLGSGSGDVKLVESGGGLVKLGGSLRLSCAASGFSFSTSYMSWVRQTPEKRLELVAAINLNGGSTYYSDTVKGRFTISRDNAKNTLYLQMSSLKSEDTAFYYCASELAGYGTPFAYWGQGTLVTVSAGSAASGSSGGSSSGADIVLTQSPATLSVTPGDSVSLSCKASQSISYNLHWYQQKSHESPRLLIKYTSQSISGIPSRFSGSGSGTDFTLTINNVETEDFGMYFCQQSNSWPLTFGAGTKLEVKGSGSGDKTHTCPPCPAPEAAGGPSVFLFPPKPKDTLMISRTPEVTCVVVDVSHEDPEVKFNWYVDGVEVHNAKTKPREEQYNSTYRVVSVLTVLHQDWLNGKEYKCKVSNKALGAPIEKTISKAKGQPREPQVYTLPPSREEMTKNQVSLTCLVKGFYPSDIAVEWESNGQPENNYKTTPPVLDSDGSFFLYSKLTVDKSRWQQGNVFSCSVMHEALHNHYTQKSLSLSPGK
B1 gave a Kd in experiment [1] of 98 nM.

B2: F1:5:L1:Fc (bispecific antibody)
chain: EVQLVESGGGLVQPGGSLRLSCAASGFTFSHYTLSWVRQAPGKGLEWVSVISGDGSYTYYADSVKGRFTISSDNSKNTLYLQMNSLRAEDTAVYYCARNFIKYVFANWGQGTLVTVSSGGGGSGGGGSGGGGSDIELTQPPSVSVAPGQTARISCSGDNIGSFYVHWYQQKPGQAPVLVIYDKSNRPSGIPERFSGSNSGNTATLTISGTQAEDEADYYCQSYANTLSLVFGGGTKLTVLGSGSGDVKLVESGGGLVKLGGSLRLSCAASGFSFSTSYMSWVRQTPEKRLELVAAINLNGGSTYYSDTVKGRFTISRDNAKNTLYLQMSSLKSEDTAFYYCASELAGYGTPFAYWGQGTLVTVSAGSAASGSSGGSSSGADIVLTQSPATLSVTPGDSVSLSCKASQSISYNLHWYQQKSHESPRLLIKYTSQSISGIPSRFSGSGSGTDFTLTINNVETEDFGMYFCQQSNSWPLTFGAGTKLEVKGSGSGDKTHTCPPCPAPEAAGGPSVFLFPPKPKDTLMISRTPEVTCVVVDVSHEDPEVKFNWYVDGVEVHNAKTKPREEQYNSTYRVVSVLTVLHQDWLNGKEYKCKVSNKALGAPIEKTISKAKGQPREPQVYTLPPSREEMTKNQVSLTCLVKGFYPSDIAVEWESNGQPENNYKTTPPVLDSDGSFFLYSKLTVDKSRWQQGNVFSCSVMHEALHNHYTQKSLSLSPGK
Regarding B2, the Kd in experiment [2] came out at 5.1 nM; in experiment [3] it was 0.3 nM.

B3: F1:15:L1:Fc (bispecific antibody)
chain: EVQLVESGGGLVQPGGSLRLSCAASGFTFSHYTLSWVRQAPGKGLEWVSVISGDGSYTYYADSVKGRFTISSDNSKNTLYLQMNSLRAEDTAVYYCARNFIKYVFANWGQGTLVTVSSGGGGSGGGGSGGGGSDIELTQPPSVSVAPGQTARISCSGDNIGSFYVHWYQQKPGQAPVLVIYDKSNRPSGIPERFSGSNSGNTATLTISGTQAEDEADYYCQSYANTLSLVFGGGTKLTVLGSGSGGSGSGGSSGGDVKLVESGGGLVKLGGSLRLSCAASGFSFSTSYMSWVRQTPEKRLELVAAINLNGGSTYYSDTVKGRFTISRDNAKNTLYLQMSSLKSEDTAFYYCASELAGYGTPFAYWGQGTLVTVSAGSAASGSSGGSSSGADIVLTQSPATLSVTPGDSVSLSCKASQSISYNLHWYQQKSHESPRLLIKYTSQSISGIPSRFSGSGSGTDFTLTINNVETEDFGMYFCQQSNSWPLTFGAGTKLEVKGSGSGDKTHTCPPCPAPEAAGGPSVFLFPPKPKDTLMISRTPEVTCVVVDVSHEDPEVKFNWYVDGVEVHNAKTKPREEQYNSTYRVVSVLTVLHQDWLNGKEYKCKVSNKALGAPIEKTISKAKGQPREPQVYTLPPSREEMTKNQVSLTCLVKGFYPSDIAVEWESNGQPENNYKTTPPVLDSDGSFFLYSKLTVDKSRWQQGNVFSCSVMHEALHNHYTQKSLSLSPGK
For the molecule B3, the results for the Kd in experiment [2] and in experiment [3] were 5.5 nM and 0.4 nM, respectively.

B4: F1:10:L1:Fc (bispecific antibody)
chain: EVQLVESGGGLVQPGGSLRLSCAASGFTFSHYTLSWVRQAPGKGLEWVSVISGDGSYTYYADSVKGRFTISSDNSKNTLYLQMNSLRAEDTAVYYCARNFIKYVFANWGQGTLVTVSSGGGGSGGGGSGGGGSDIELTQPPSVSVAPGQTARISCSGDNIGSFYVHWYQQKPGQAPVLVIYDKSNRPSGIPERFSGSNSGNTATLTISGTQAEDEADYYCQSYANTLSLVFGGGTKLTVLGSGSGGSGSGDVKLVESGGGLVKLGGSLRLSCAASGFSFSTSYMSWVRQTPEKRLELVAAINLNGGSTYYSDTVKGRFTISRDNAKNTLYLQMSSLKSEDTAFYYCASELAGYGTPFAYWGQGTLVTVSAGSAASGSSGGSSSGADIVLTQSPATLSVTPGDSVSLSCKASQSISYNLHWYQQKSHESPRLLIKYTSQSISGIPSRFSGSGSGTDFTLTINNVETEDFGMYFCQQSNSWPLTFGAGTKLEVKGSGSGDKTHTCPPCPAPEAAGGPSVFLFPPKPKDTLMISRTPEVTCVVVDVSHEDPEVKFNWYVDGVEVHNAKTKPREEQYNSTYRVVSVLTVLHQDWLNGKEYKCKVSNKALGAPIEKTISKAKGQPREPQVYTLPPSREEMTKNQVSLTCLVKGFYPSDIAVEWESNGQPENNYKTTPPVLDSDGSFFLYSKLTVDKSRWQQGNVFSCSVMHEALHNHYTQKSLSLSPGK
As to B4, the Kd was determined as 5.4 nM in experiment [2] and 0.4 nM in experiment [3].

B5: L1:15:F1:Fc (bispecific antibody)
chain: DVKLVESGGGLVKLGGSLRLSCAASGFSFSTSYMSWVRQTPEKRLELVAAINLNGGSTYYSDTVKGRFTISRDNAKNTLYLQMSSLKSEDTAFYYCASELAGYGTPFAYWGQGTLVTVSAGSAASGSSGGSSSGADIVLTQSPATLSVTPGDSVSLSCKASQSISYNLHWYQQKSHESPRLLIKYTSQSISGIPSRFSGSGSGTDFTLTINNVETEDFGMYFCQQSNSWPLTFGAGTKLEVKGSGSGGSGSGGSSGGEVQLVESGGGLVQPGGSLRLSCAASGFTFSHYTLSWVRQAPGKGLEWVSVISGDGSYTYYADSVKGRFTISSDNSKNTLYLQMNSLRAEDTAVYYCARNFIKYVFANWGQGTLVTVSSGGGGSGGGGSGGGGSDIELTQPPSVSVAPGQTARISCSGDNIGSFYVHWYQQKPGQAPVLVIYDKSNRPSGIPERFSGSNSGNTATLTISGTQAEDEADYYCQSYANTLSLVFGGGTKLTVLGSGSGDKTHTCPPCPAPEAAGGPSVFLFPPKPKDTLMISRTPEVTCVVVDVSHEDPEVKFNWYVDGVEVHNAKTKPREEQYNSTYRVVSVLTVLHQDWLNGKEYKCKVSNKALGAPIEKTISKAKGQPREPQVYTLPPSREEMTKNQVSLTCLVKGFYPSDIAVEWESNGQPENNYKTTPPVLDSDGSFFLYSKLTVDKSRWQQGNVFSCSVMHEALHNHYTQKSLSLSPGK
Take B5: the Kd in experiment [2] amounted to 5.6 nM; in experiment [3] it was 0.8 nM.

B6: L1:5:F1:Fc (bispecific antibody)
chain: DVKLVESGGGLVKLGGSLRLSCAASGFSFSTSYMSWVRQTPEKRLELVAAINLNGGSTYYSDTVKGRFTISRDNAKNTLYLQMSSLKSEDTAFYYCASELAGYGTPFAYWGQGTLVTVSAGSAASGSSGGSSSGADIVLTQSPATLSVTPGDSVSLSCKASQSISYNLHWYQQKSHESPRLLIKYTSQSISGIPSRFSGSGSGTDFTLTINNVETEDFGMYFCQQSNSWPLTFGAGTKLEVKGSGSGEVQLVESGGGLVQPGGSLRLSCAASGFTFSHYTLSWVRQAPGKGLEWVSVISGDGSYTYYADSVKGRFTISSDNSKNTLYLQMNSLRAEDTAVYYCARNFIKYVFANWGQGTLVTVSSGGGGSGGGGSGGGGSDIELTQPPSVSVAPGQTARISCSGDNIGSFYVHWYQQKPGQAPVLVIYDKSNRPSGIPERFSGSNSGNTATLTISGTQAEDEADYYCQSYANTLSLVFGGGTKLTVLGSGSGDKTHTCPPCPAPEAAGGPSVFLFPPKPKDTLMISRTPEVTCVVVDVSHEDPEVKFNWYVDGVEVHNAKTKPREEQYNSTYRVVSVLTVLHQDWLNGKEYKCKVSNKALGAPIEKTISKAKGQPREPQVYTLPPSREEMTKNQVSLTCLVKGFYPSDIAVEWESNGQPENNYKTTPPVLDSDGSFFLYSKLTVDKSRWQQGNVFSCSVMHEALHNHYTQKSLSLSPGK
In the case of B6, the Kd turned out to be 4.9 nM in experiment [2] and 0.6 nM in experiment [3].

B7: L1:10:F1:Fc (bispecific antibody)
chain: DVKLVESGGGLVKLGGSLRLSCAASGFSFSTSYMSWVRQTPEKRLELVAAINLNGGSTYYSDTVKGRFTISRDNAKNTLYLQMSSLKSEDTAFYYCASELAGYGTPFAYWGQGTLVTVSAGSAASGSSGGSSSGADIVLTQSPATLSVTPGDSVSLSCKASQSISYNLHWYQQKSHESPRLLIKYTSQSISGIPSRFSGSGSGTDFTLTINNVETEDFGMYFCQQSNSWPLTFGAGTKLEVKGSGSGGSGSGEVQLVESGGGLVQPGGSLRLSCAASGFTFSHYTLSWVRQAPGKGLEWVSVISGDGSYTYYADSVKGRFTISSDNSKNTLYLQMNSLRAEDTAVYYCARNFIKYVFANWGQGTLVTVSSGGGGSGGGGSGGGGSDIELTQPPSVSVAPGQTARISCSGDNIGSFYVHWYQQKPGQAPVLVIYDKSNRPSGIPERFSGSNSGNTATLTISGTQAEDEADYYCQSYANTLSLVFGGGTKLTVLGSGSGDKTHTCPPCPAPEAAGGPSVFLFPPKPKDTLMISRTPEVTCVVVDVSHEDPEVKFNWYVDGVEVHNAKTKPREEQYNSTYRVVSVLTVLHQDWLNGKEYKCKVSNKALGAPIEKTISKAKGQPREPQVYTLPPSREEMTKNQVSLTCLVKGFYPSDIAVEWESNGQPENNYKTTPPVLDSDGSFFLYSKLTVDKSRWQQGNVFSCSVMHEALHNHYTQKSLSLSPGK
As to B7, the Kd in experiment [2] came to 5.9 nM; in experiment [3], 0.7 nM.
